Assay results published in paper PMC3809846 (International journal of cancer. Journal international du …, 2012).
No end group written: not given here.

T1: biotinylated podoplanin peptide (hpp38-51) (Homo sapiens, UniProt Q86YL7, also: biotin, position not given here)
T1 chain: EGGVAMPGAEDDVV

B1: NZ-1 monoclonal antibody (antibody, V domains shown)
VH: EVQLVESGGGLVQPGRSLKLSCAASGFTFSNYGMAWVRQTPTKGLEWIASISAGGDKTYYGDSVKGRFSISRDNAKTTHYLQMDSLRSEDTATYYCAKTSRVYFDYWGQGVMVTVSS
VL: QFVLTQPNSVSTNLGSTVKLSCKRSTGNIGSNYVNWYQQHEGRSPTTMIYRDDKRPDGVPDRFSGSIDRSSNSALLTINNVQTEDEADYFCHSYSSGIVFGGGTKLTVL
B2: NZ-1-(scdsFv) (scFv, V domains shown)
VH: EVQLVESGGGLVQPGRSLKLSCAASGFTFSNYGMAWVRQTPTKCLEWIASISAGGDKTYYGDSVKGRFSISRDNAKTTHYLQMDSLRSEDTATYYCAKTSRVYFDYWGQGVMVTVSS
VL: QFVLTQPNSVSTNLGSTVKLSCKRSTGNIGSNYVNWYQQHEGRSPTTMIYRDDKRPDGVPDRFSGSIDRSSNSALLTINNVQTEDEADYFCHSYSSGIVFGGCTKLTVL

Legend:
[1] = target: podoplanin expressed on brain tumor cells (Homo sapiens, UniProt Q86YL7); assay: flow cytometry on cells
podoplanin expressed on brain tumor cells, sequence (Q86YL7 23-162): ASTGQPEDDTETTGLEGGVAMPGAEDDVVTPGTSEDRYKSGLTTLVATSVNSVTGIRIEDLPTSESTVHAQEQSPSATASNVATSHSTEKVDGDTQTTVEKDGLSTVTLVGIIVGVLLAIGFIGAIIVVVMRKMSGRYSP

[2] = target: T1, biotinylated podoplanin peptide …; assay: SPR

| Binder | binding result [1] | Ka [2] [M⁻¹] |
| --- | --- | --- |
| B1 | binds | – |
| B2 | – | 4.8e+07 |
